# Data published in the RNAGym collection of RNA variant scans (doi:10.7554/elife.80360).
# B1: HDV Ribozyme (parent)
# chain: GGCCGGCAUGGUCCCAGCCUCCUCGCUGGCGCCGGCUGGGCAACAUUCCGAGGGGACCGUCCCCUCGGUAAUGGCGAAUGGGACCCA
# Variants of: B1
# Assay: self-cleavage, relative activity (ratio to wild type); higher = more cleavage; co-transcriptional
row,Variant,self-cleavage
1,G55U A87U,1.1
2,A56G A83C,0.0639
3,A56U C85G,0.982
4,A56U C85A,0.966
5,G55U A78G,0.684
6,G55U A78U,0.224
7,A56G C58A,1.12
8,A56G C58U,0.862
9,G55C A87G,0.953
10,G55C A87U,1.02
11,G55C A87C,1.11
12,A56U A71C,0.966
13,C57U C64U,0.845
14,C57A A83G,0.688
15,A56C U60A,0.937
16,A56C U60G,0.68
17,G55U C66U,0.973
18,G55U C66A,0.986
19,C57U A87U,1.01
20,G55U C75U,0.168
21,G55U C75G,0.0707
22,C57A U65C,0.762
23,C57A U65G,1.04
24,G55A U69C,0.918

row,Variant,self-cleavage
1,G55A U69G,0.942
2,G55C G76C,0.943
3,A56C A87C,1.04
4,C57G G81A,0.509
5,C57G C61A,1.03
6,A56G A78G,0.615
7,G55C G80A,0.34
8,G55U U72G,0.652
9,C57U A78U,0.119
10,C57U A78G,0.639
11,A56C G76U,1.19
12,A56C A77U,0.437
13,C57G A77G,1.05
14,C57G A77U,0.923
15,C57A A77G,1.17
16,C57G C66G,1.08
17,A56U U65A,1
18,G55C C85G,1.15
19,G55C A71C,0.903
20,G55C A71U,0.872
21,A56G C57U,0.985
22,A56G G68A,0.96
23,A56U C58U,0.985
24,C57G U79G,0.506

row,Variant,self-cleavage
1,G55U U65A,0.891
2,G55U U65G,0.847
3,A56C U79G,0.997
4,A56C U79A,0.554
5,G55C C62A,1.04
6,A56G C85U,1.02
7,A56G C85A,0.95
8,A56G C85G,0.831
9,G55C C86A,1.03
10,A56G A71C,0.534
11,A56U A77G,1.01
12,C57U G67A,0.906
13,C57A G74A,0.597
14,G55C G67U,0.967
15,G55C G67C,1.06
16,G55C A70C,0.932
17,G55C A70U,0.96
18,C57U A70G,0.967
19,C57A C66A,1.18
20,C57A C63U,1.12
21,C57A C63G,0.945
22,C57A C63A,1.25
23,A56C G59A,1.05
24,A56C G59U,0.848

row,Variant,self-cleavage
1,A56G G81C,0.198
2,A56G G81A,0.665
3,G55U G76U,0.993
4,G55U G76C,1.08
5,G55U G76A,1.17
6,A56U C64U,1.07
7,A56U C64G,0.882
8,A56U C64A,0.899
9,A56U U69A,1.04
10,A56C C61G,1.05
11,A56G C62U,0.912
12,A56G C62A,0.467
13,A56G C62G,0.731
14,A56U A70U,1.09
15,G55U C63G,0.695
16,G55U C63U,0.997
17,A56C G73C,0.536
18,A56U C63G,0.815
19,A56U C63U,0.799
20,A56C G81U,0.277
21,A56U G67U,0.988
22,G55U A71G,1.04
23,G55U A71U,0.786
24,C57G C86G,0.831

row,Variant,self-cleavage
1,C57G C86A,0.656
2,C57G C86U,0.815
3,C57A A78U,0.108
4,C57A A78C,0.0437
5,G55U C86A,0.911
6,G55U C86U,0.923
7,G55C,1.02
8,G55U,1.01
9,G55C C61U,1
10,G55C U69G,0.984
11,G55C U69C,1
12,C57G U72C,0.587
13,C57G U72A,0.635
14,A56G A87C,0.993
15,G55U U60A,0.886
16,C57U A83G,0.808
17,A56U U72C,0.489
18,C57A C64A,0.857
19,C57A C64G,0.658
20,C57G C85G,1.09
21,C57G C85A,0.935
22,A56C A71G,0.98
23,G55C G68U,1.08
24,A56G G82A,0.277

row,Variant,self-cleavage
1,A56G G82U,0.244
2,C57A C75A,0.277
3,C57A C75U,0.0978
4,A56G G59A,0.849
5,C57G A78U,0.441
6,C57A U72G,0.635
7,G55C C57U,0.976
8,G55U U79C,0.395
9,A56U G74A,0.681
10,A56U G74U,0.718
11,G55U U69A,0.869
12,G55U U69C,1
13,G55U U69G,0.933
14,G55U G68C,0.744
15,G55U G68U,1
16,A56G G74A,0.45
17,A56G G67C,1.05
18,A56C A83C,0.494
19,A56C A83U,0.192
20,A56C C57U,1.08
21,C57U C85U,1.11
22,C57U C85A,0.698
23,G55C A77U,0.65
24,C57U C61G,0.967

row,Variant,self-cleavage
1,C57G G59U,0.978
2,C57G G59A,0.997
3,C57G G59C,0.969
4,G55U C61U,0.859
5,A56U C84U,0.808
6,G55A U72A,0.917
7,A56U G82C,0.172
8,A56G U69A,0.906
9,A56G U69C,1.32
10,C57G G68U,1.01
11,C57G G68C,0.831
12,C57A C58A,1.07
13,C57A C61U,1.14
14,A56G U72G,0.677
15,G55C G59U,0.87
16,G55C G59A,1.06
17,A56G C64U,0.563
18,A56G C64A,0.764
19,C57G A71G,1.08
20,C57G A71U,0.91
21,C57U G59A,1.07
22,C57U G59C,0.89
23,C57G C84U,0.721
